Source: patent US20160129078A1, “Rhomboid Proteins and Uses Thereof” (Queen's University at Kingston, priority 2014, published 2016)

How the values were obtained:
yeast = test: Sensitization of yeast to fungicidal agents AmB and Nys; type: cell-based, Saccharomyces cerevisiae; settings: for yeast cell survival, variant added alone: 10 ug protein alone in elution buffer, no fungicide; for yeast survival, fungicidal agents together with variant protein: 10 ug protein with sub-lethal AmB and/or Nys
Protocol: Experiments were conducted to assess the ability of the Arabidopsis At1g74130 proteins or variants to sensitize yeast to the antifungal agents Amphotericin B (AmB) and Nystatin (Nys). Overall, these assays were conducted in a manner similar to that designed for bacteria (Example 9). In addition to the components mixed with the added proteins or variants, the antifungal AmB was also utilized as part of the delivery system. The AmB drug contains small quantities of the detergent deoxycholate, which may also assist in the delivery of proteins into the cell, as well as function as a pore forming agent itself. […] The effective co-delivery sub-lethal concentrations of the two antifungal agents or protein had little or no effect when provided individually. FIGS. 17 and 18 show results of the yeast sensitivity assays for AmB and Nys. […] In FIG. 17, the “Yeast Control” bars represent yeast cells given mock treatments with culture media (YPD) alone, YPD plus 1% AmB, YPD plus 0.5% Nys, and YPD plus 1% AmB and 0.5% Nys, respectively. The “BSA Control” bars represent another set of mock treatments with yeast cells. This set utilized the same set-up as the Yeast Control set but with added control bovine serum albumin proteins (BSA) (dissolved in the elution buffer, the same buffer used for the purification of the recombinant At1g74130 rhomboid proteins or variants). These assays represent another variation of negative controls for rhomboid protein. The “Elution Control” bars represent yeast cells mock treated using the same set-up as in the Yeast Control set but with added elution buffer alone. This variation of control assays was designed to assess for potential toxic impacts when combining elution buffer and the listed drugs, as well any effects originating from components of the elution buffer itself. The composition of the elution buffer is provided above in Example 5. With the exception of Nys, these treatments represent the first step and occur for 45 minutes before the second step when exposure to fungicides takes place. Within each set of bars, where applicable, the second 15-minute step treatment occurred with a sub-lethal dose of Nys. After a total of one hour, the treated yeast cells were plated on non-selective YPD agar plates. Plates were grown 2-3 days at 27-30° C. and assessed for surviving cell numbers (measuring cell death). Images were also taken to document cell and colony growth characteristics.
In the experimental assays, the sensitizing properties of At1g74130 or variants (sensitizing variants) were tested by adding 10 ug protein (At1g74130 or variants in elution buffer) to yeast cells (300-500 cells). To reiterate in all cases, the components were added to cultures and mixed for one hour, where Nys was added and incubated for the last 15 minutes of the treatment. Pre-treatment was designed to permit AmB and At1g74130 proteins to establish and work prior to adding Nys. After the one hour incubation, 500 cells were plated on non-selective YPD agar media and grown for 48 hours at 30′C.
The sub-lethal levels of fungicides to use in these assays were determined using dosage experiments. These assays were conducted on yeast cells without added rhomboid proteins or variants. The dosages of AmB tested ranged from 0 to 5% (v/v). […] Likewise, the Nys level was determined using a range of 0.5 to 2.5%. Yeast cells were treated for one hour with fungicides in a total volume of 400 μl YPD media before plating.
Since both the AmB buffer contained small quantities of detergent (deoxycholate being the main one), an experiment was done in which different amounts (1% and 10%) of deoxycholate were added to yeast cells to ascertain any effects. Adding deoxycholate had little effect on yeast.
This set of yeast assays was conducted in the same manner described above (Example 13) and employed the same controls and combinations. […]

bacteria = test: Sensitization of bacteria to tetracycline by exogenous rhomboid protein; type: cell-based, Escherichia coli; settings: tetracycline 15 ug/ml
Protocol: Experiments were conducted to assess the ability and the utility of At1g74130 protein variants to sensitize bacteria to another antibiotic, tetracycline. In bacteria, tolerance or resistance to tetracycline is facilitated by a mechanism different from the ampicillin resistance assayed in Example 9. Unlike the breakdown of ampicillin outside the bacterial cells by secreted ampicilliase, tetracycline resistance in bacteria is based largely on the continual and effective pumping of tetracycline out of the cell by proteinaceous membrane pumps. To assess the utility of the At1g74130 for sensitizing bacteria to tetracycline, these bacterial assays were conducted in the same manner described in Example 9. The same controls and combinations were used. The final treatment level of tetracycline used in place of the ampicillin treatment was 15 ug/ml.
Experiments were conducted to assess the ability and the utility of a human rhomboid type or variant to sensitize bacteria to tetracycline. These bacterial assays were conducted in the same manner described above for the other rhomboid variants and in Example 9. The same controls and combinations were used. The At1g74130 L was the control for UBAC2 in this set of assays. The previously observed behaviours and responses were not observed for UBAC2 in this setting with the antibiotic tetracycline (FIG. 16).

Pseudomonas aeruginosa = test: Impairment of lipase secretion and growth on minimal media-olive oil plates; type: cell-based; settings: for growth on minimal media-olive oil agar plates: 10 ug protein, with or without 5% DMSO, olive oil as only carbon source
Description: Experiments were thus conducted to assess the ability of At1g74130 proteins or variants to impair the protein secretion process of Pseudomonas aeruginosa, a gram-negative bacterium known to be pathogenic and producers of biofilms. Any impact on the protein secretion mechanism may alter pathogenicity, growth, survival, biofilm production, and sensitivity to antimicrobial drugs. The design of the Pseudomonas assays was similar to that used for bacteria in the above examples, results, and figures. Treated Pseudomonas cells were plated onto minimal media supplemented with olive oil as the only external carbon source. The minimal media-olive oil plates consisted of the following: 50 mM MOPS, pH 7.5; 40 mM K2HPO4; 25 mM NaH2PO4; 7.5 mM (NH4)2SO4; 0.4 mM MgSO4; 0.5% (v/v) olive oil; 40 ug/ml neutral red; 20 ul trace elements (Mn, Co, Zn, Cu, and Mo); and 1.5% agar. Pseudomonas cells need to express and secrete lipases in order to break down the olive oil and allow the acquisition of carbon from the media. Cells that are impaired with respect to protein secretion will not be able to break down the olive oil for acquisition and permit subsequent growth.
Control assays were conducted on cells without added At1g74130 or variants (sensitizer variants) to determine the delivery system to use. Control assays were also conducted to determine if the 5% (v/v) DMSO delivery system used for E. coli exerted any effect. Pseudomonas cells were mock treated with Luria Broth (LB) media or 5% (v/v) DMSO for 45-90 minutes prior to plating on minimal media supplemented with olive oil as the sole external carbon source. Total volumes of 200 μl were used in these assays. The plates were allowed to grow overnight to assess the level of growth or colony formation.
In the experimental assays, the utility of At1g74130 or variants in the Pseudomonas was tested by adding 10 ug protein (At1g74130 or variants) to cells (600-800 cells) incubated for 45 minutes at 37° C., shaken, and followed by another 45 minute period at 37° C. […]

| Molecule | yeast cell survival, variant added alone (yeast) | yeast survival, fungicidal agents together with variant protein (yeast) | sensitization of bacteria to tetracycline (bacteria) | growth on minimal media-olive oil agar plates (Pseudomonas aeruginosa) | lipase secretion (Pseudomonas aeruginosa; assay with elution buffer and variant) |
| --- | --- | --- | --- | --- | --- |
| At1g74130 M: 7/8 M-form splice variant of Arabidopsis At1g74130 rhomboid protein (protein, listed as Arabidopsis thaliana) MHAIFCRRVAVGCSSPQLTKLVTKQASQSRHSLSHLLPFDLSSRFVPPYVVSRSARVHGFFAGKLGNTNLKLKFGNVMESRAGFFSSELPSHGFESGGFTGFQKRGWKSWINGANGVVFGLVIANAAVFTMWRVLGKDNMWMVKNFMLSRYSFMTGRIHTLITSGFSHVGATHIILNMMGLCYFGARIARSFGPRYLLKLYFAGALGGSVFFLSSHALSVISLKGQRVVPKDQLKVPIGKLGANGPVYAITLLDMLLYPKVTTYFGLMLRVPVFAGIYSLGLNIIKMLEVCMMGKTTIP | no effect | dramatically reduced yeast survival | increased the sensitivity | reduced | moderate impairment of lipase secretion |
| At1g74130 S: 6/7 S-form splice variant of Arabidopsis At1g74130 rhomboid protein (protein, listed as Arabidopsis thaliana) MHAIFCRRVAVGCSSPQLTKLVTKQASQSRHSLSHLLPFDLSSRFVPPYVVSRSARVHGFFAGKLGNTNLKLKFGNVMESRAGFFSSELPSHGFESGGFTGFQKRGWKSWINGANGVVFGLVIANAAVFTMWRVLGKDNMWMVKNFMLSRYSFMTGRIHTLITSGFSHVGATHIILNMMGLCYFGARIARSFGPRYLLKLYFAGALGGSVFFLSSHALSVISLKGQRVVPKDQLKVPIGKLGANGPVYAITLLDMLLYPKVTTYFGLMLRVPVFAVRESIA | no effect | dramatically reduced yeast survival | no activity | most potent impact | – |
